According to publication PMC5916898, “Global profiling of protein–DNA and protein–nucleosome binding affinities using quantitative mass spectrometry”:

B1: SP/KLF wild-type (dsDNA)
DNA 1: GAGAGCCCCGCCCCCTGGCT
DNA 2: AGCCAGGGGGCGGGGCTCTC
B2: CTCF (dsDNA)
DNA 1: TCAGAGTGGCGGCCAGCAGGGGGCGCCCTTGCCAGA
DNA 2: TCTGGCAAGGGCGCCCCCTGCTGGCCGCCACTCTGA
B3: TATA-box (dsDNA)
DNA 1: GCGGCGCTCTATATAAGTGGGCAGTG
DNA 2: CACTGCCCACTTATATAGAGCGCCGC
B4: TEAD (dsDNA)
DNA 1: TCGGGACCCAGGCCTGGAATGTTTCCACC
DNA 2: GGTGGAAACATTCCAGGCCTGGGTCCCGA

Each binder was assayed against KLF4 (Homo sapiens, UniProt O43474) (assay: pulldown; 150 mM NaCl, 50 mM Tris pH 8, 0.25% NP-40, 1 mM TCEP; 4 C, 2 h; 100 ug HeLa nuclear lysate). Conditions: protein: extract; label: 5' biotin (strand 1).
Sequence of KLF4 (O43474 whole entry): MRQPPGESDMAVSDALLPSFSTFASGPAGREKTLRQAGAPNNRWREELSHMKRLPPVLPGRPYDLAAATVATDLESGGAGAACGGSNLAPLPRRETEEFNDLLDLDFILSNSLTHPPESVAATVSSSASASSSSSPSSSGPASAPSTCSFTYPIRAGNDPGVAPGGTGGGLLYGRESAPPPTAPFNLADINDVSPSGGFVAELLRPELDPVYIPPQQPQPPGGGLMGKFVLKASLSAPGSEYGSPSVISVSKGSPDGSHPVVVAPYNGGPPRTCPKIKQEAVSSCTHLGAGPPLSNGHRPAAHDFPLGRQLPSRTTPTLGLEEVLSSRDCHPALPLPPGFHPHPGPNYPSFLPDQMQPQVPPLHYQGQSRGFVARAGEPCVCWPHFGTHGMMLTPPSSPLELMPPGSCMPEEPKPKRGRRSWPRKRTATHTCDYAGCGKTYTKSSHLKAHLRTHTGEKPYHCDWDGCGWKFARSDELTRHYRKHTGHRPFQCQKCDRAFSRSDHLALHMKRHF

Binder | apparent K (half saturation)
B1 | 79.3 nM
B2 | 26.3 nM
B3 | 159 nM

Each binder was assayed against ZBTB7A (Homo sapiens, UniProt O95365) in the same assay as above. Conditions: protein: extract; label: 5' biotin (strand 1).
Sequence of ZBTB7A (O95365 whole entry): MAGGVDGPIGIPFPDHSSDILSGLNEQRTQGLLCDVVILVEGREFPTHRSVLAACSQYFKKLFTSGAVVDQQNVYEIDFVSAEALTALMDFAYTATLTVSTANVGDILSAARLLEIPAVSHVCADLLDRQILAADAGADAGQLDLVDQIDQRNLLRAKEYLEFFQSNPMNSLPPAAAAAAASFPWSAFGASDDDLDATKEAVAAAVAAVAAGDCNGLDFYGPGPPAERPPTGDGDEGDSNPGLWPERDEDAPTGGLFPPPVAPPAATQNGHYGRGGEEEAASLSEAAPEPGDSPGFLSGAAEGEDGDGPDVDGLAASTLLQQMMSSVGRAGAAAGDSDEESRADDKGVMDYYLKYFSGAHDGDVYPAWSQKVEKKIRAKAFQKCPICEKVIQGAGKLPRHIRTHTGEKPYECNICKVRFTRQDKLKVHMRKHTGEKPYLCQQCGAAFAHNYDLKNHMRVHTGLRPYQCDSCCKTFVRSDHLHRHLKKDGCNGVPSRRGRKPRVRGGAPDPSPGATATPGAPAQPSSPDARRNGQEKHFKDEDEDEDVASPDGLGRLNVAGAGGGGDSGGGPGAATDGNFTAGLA

Binder | apparent K (half saturation)
B1 | 174 nM
B4 | 129 nM
B2 | 38.9 nM
B3 | 258 nM

These binders were tested against T1, BBX (Homo sapiens, UniProt Q8WY36) in the same assay as above. Conditions: protein: extract; label: 5' biotin (strand 1).
T1 sequence: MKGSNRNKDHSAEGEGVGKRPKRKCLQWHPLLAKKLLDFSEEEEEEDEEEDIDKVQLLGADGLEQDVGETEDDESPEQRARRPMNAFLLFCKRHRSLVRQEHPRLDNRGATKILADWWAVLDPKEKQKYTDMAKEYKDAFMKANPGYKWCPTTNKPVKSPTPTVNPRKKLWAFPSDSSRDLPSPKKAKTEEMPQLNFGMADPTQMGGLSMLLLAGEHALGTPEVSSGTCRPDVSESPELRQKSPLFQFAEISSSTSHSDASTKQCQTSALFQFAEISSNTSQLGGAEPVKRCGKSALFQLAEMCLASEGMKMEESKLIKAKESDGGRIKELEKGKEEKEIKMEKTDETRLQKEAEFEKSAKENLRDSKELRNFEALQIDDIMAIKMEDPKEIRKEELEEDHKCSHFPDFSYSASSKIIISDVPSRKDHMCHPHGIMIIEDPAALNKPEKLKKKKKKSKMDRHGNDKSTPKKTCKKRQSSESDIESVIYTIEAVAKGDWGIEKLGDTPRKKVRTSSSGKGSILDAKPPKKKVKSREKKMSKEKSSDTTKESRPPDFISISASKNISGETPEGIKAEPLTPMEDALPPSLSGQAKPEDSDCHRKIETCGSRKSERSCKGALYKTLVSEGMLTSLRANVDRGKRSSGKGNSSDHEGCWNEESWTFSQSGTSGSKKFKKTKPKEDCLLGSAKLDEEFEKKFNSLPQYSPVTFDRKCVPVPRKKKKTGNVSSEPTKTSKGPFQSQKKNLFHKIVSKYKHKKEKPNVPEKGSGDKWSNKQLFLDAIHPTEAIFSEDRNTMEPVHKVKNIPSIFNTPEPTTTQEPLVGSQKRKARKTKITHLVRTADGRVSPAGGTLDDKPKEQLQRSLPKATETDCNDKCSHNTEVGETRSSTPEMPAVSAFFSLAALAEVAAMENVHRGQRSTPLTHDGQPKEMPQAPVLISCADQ

Binder | apparent K (half saturation)
B4 | 390 nM
B2 | 308 nM
B3 | 405 nM

These binders were tested against KLF5 (Homo sapiens, UniProt Q13887) in the same assay as above. Conditions: protein: extract; label: 5' biotin (strand 1).
Sequence of KLF5 (Q13887 whole entry): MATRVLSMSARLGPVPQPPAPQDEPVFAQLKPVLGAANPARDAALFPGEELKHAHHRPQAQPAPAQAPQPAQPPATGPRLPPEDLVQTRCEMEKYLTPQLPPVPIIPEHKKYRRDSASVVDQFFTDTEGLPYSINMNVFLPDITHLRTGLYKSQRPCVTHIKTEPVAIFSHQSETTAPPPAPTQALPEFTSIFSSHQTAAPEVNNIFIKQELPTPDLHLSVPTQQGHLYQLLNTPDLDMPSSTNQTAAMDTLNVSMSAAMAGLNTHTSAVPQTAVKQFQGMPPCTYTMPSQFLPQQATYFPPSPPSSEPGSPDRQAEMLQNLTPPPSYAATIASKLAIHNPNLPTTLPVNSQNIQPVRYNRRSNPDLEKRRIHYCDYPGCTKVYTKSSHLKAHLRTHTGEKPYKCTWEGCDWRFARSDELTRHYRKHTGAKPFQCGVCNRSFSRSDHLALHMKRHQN

Binder | apparent K (half saturation)
B1 | 37 nM
B4 | 101 nM
B2 | 25.3 nM
B3 | 219 nM

What follows are binders tested against TFAP2A (Homo sapiens, UniProt P05549) in the same assay as above. Conditions: protein: extract; label: 5' biotin (strand 1).
Sequence of TFAP2A (P05549 whole entry): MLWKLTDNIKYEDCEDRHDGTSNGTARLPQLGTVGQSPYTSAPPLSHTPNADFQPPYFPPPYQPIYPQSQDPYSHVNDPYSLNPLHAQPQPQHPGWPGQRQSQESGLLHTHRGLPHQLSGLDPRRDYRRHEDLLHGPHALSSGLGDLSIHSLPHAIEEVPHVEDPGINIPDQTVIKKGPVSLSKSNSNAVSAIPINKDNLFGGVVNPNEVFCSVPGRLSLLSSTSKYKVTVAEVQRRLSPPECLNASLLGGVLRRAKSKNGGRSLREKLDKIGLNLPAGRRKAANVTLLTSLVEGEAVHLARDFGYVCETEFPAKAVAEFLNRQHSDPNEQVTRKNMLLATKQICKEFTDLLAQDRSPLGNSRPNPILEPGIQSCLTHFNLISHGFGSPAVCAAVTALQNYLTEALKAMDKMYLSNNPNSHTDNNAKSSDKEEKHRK

Binder | apparent K (half saturation)
B1 | 196 nM
B4 | 193 nM
B2 | 83.3 nM
B3 | 328 nM

What follows are binders tested against T2, ZNF148 (Homo sapiens, UniProt Q9UQR1) in the same assay as above. Conditions: protein: extract; label: 5' biotin (strand 1).
T2 sequence: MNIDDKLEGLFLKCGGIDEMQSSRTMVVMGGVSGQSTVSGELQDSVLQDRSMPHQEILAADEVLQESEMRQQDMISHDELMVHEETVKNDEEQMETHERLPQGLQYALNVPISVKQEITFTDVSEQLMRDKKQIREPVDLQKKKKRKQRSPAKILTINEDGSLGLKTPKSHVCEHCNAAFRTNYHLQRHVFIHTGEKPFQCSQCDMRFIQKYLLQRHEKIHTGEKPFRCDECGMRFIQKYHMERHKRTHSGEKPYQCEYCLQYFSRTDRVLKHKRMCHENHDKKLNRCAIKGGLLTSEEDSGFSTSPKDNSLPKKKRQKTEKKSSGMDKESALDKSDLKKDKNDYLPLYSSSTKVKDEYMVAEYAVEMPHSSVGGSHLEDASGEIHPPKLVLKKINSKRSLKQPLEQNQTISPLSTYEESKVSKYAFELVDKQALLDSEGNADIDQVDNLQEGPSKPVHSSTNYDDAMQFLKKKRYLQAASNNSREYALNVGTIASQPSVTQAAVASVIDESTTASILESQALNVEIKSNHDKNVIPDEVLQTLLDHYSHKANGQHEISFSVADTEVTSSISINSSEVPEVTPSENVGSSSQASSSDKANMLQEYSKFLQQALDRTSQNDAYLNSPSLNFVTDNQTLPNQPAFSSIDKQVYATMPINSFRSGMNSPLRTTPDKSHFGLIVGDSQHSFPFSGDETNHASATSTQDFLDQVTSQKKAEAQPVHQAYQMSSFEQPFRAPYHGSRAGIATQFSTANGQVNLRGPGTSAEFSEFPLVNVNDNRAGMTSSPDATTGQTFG

Binder | apparent K (half saturation)
B1 | 70.5 nM
B4 | 387 nM
B2 | 63.7 nM
B3 | 383 nM

The binders below were run against SP1 (Homo sapiens, UniProt P08047) in the same assay as above. Conditions: protein: extract; label: 5' biotin (strand 1).
Sequence of SP1 (P08047 whole entry): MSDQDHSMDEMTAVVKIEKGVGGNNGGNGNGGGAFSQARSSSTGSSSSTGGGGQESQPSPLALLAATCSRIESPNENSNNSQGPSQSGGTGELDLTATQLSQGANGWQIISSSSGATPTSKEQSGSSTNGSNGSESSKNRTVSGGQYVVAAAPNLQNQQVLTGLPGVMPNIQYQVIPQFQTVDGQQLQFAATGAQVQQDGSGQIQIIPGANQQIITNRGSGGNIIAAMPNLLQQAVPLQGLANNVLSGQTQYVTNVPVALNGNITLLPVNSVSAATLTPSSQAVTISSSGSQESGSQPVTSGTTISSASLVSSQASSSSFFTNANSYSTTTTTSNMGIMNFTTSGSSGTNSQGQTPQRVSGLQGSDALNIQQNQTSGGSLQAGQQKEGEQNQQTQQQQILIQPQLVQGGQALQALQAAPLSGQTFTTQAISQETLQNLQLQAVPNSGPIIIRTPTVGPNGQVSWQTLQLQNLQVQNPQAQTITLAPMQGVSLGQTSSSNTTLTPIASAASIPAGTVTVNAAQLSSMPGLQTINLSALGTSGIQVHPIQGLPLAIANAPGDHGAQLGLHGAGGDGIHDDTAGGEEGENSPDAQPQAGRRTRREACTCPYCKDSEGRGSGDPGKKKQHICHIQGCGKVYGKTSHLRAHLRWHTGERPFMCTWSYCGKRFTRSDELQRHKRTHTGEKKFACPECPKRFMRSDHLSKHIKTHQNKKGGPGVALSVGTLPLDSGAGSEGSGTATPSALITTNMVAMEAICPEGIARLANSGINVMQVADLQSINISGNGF

Binder | apparent K (half saturation)
B1 | 38 nM
B2 | 86.9 nM
B3 | 284 nM

Each binder was assayed against KLF16 (Homo sapiens, UniProt Q9BXK1) in the same assay as above. Conditions: protein: extract; label: 5' biotin (strand 1).
Sequence of KLF16 (Q9BXK1 whole entry): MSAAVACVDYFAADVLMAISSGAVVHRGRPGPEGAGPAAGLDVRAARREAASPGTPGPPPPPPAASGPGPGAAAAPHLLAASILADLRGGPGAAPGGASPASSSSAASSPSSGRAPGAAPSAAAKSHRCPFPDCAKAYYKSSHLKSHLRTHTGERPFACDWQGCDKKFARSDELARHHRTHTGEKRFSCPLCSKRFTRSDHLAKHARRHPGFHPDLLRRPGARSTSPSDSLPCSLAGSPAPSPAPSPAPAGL

Binder | apparent K (half saturation)
B1 | 14.5 nM
B2 | 109 nM
B3 | 151 nM
